This data set can be described thus: yeast display, Sf9 membrane polyspecificity reagent, FACS + sequencing; frameworks hold sequencing errors. An outline of the steps: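 Synthetic nanobody libraries on Saccharomyces cerevisiae BJ5465 were galactose-induced for 36–48 hours, stained 1 hour at 4 °C with 10% biotinylated, detergent-solubilized Sf9 membrane reagent and enriched on streptavidin microbeads. FACS then separated cells into low and high (top ~1%) gates by anti-HA (expression) and streptavidin (reagent binding) fluorescence. Genes were colony-PCR amplified, MiSeq 2 × 250 sequenced and CDR-length filtered. A clone's polyreactivity label is that of its gate of origin.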
Turning to “QVQLVESGGCLVQAGGSLRLSCAASGFTFPGNAMGWYRQAPGKERELVAAMSASGGKTYYADSVKGRFTISRDNAKNTVYLQMNSLKPEDTAVYYCAAVVAFATGTYYYWGQGTQVTVSS”, the “polyreactivity (PSR sort gate)” value is given as “high polyreactivity”.

For “QVQLVESGGCLVQAGGSLRLSCAASGFTFPYYAMGWDRQAPGKERELVAAISSGGRTNYADSVKGRFTISRDNAKNTVYLQMNSLKPEDTAVYYCATRSYVFAWEFNYWGQGTQVTVSS”, the “polyreactivity (PSR sort gate)” value is “high polyreactivity”.

Take “QVQLVESGGCLVQAGGSLRLSCAASGITFYEYAMGWSRQAPGKERELVAGITWSGGSTYYADSVKGRFTISRDNAKNTVYLEMNSLKPEDTAVYYCAATGAFWYPYDYWGQGTQVTVSS”: the “polyreactivity (PSR sort gate)” value is on record as “high polyreactivity”.

“QVQLVESGGCLVQAGGSLRLSCAASGLTLDQYALGWYRQAPGKEREFVAAISYSGGNTYYADSVKGRFTISRDNAKYTVYLQMNSLKPEDTAVYYCAAYYFYFYHKVIWYELDYWGQGTQVTVSS”: the “polyreactivity (PSR sort gate)” value was “low polyreactivity”.

Turning to “QVQLVESGGCLVQAGGSLRLSCAASGPTFSKANAMGWYRQAPGKERELVAAITDGGSTYADSVKGRFTISRDNAKNTVYLQMYSMKPEDTAVYYCAKDTEVFYDSSYDYWGHGTQVTVSS”, the “polyreactivity (PSR sort gate)” value is “low polyreactivity”.

For “QVQLVESGGCLVQAGGSLRLSCAASGRIFESNAMGWYRQAPGKERELVAAISVNGASTSYADSVKGRFTISRDNAKNTVYLQMNSLKPEDTAVYYCAARRGKGYYYWGQGTQVTVSS”, the “polyreactivity (PSR sort gate)” value is recorded as “high polyreactivity”.

For the sequence “QVQLVESGGCLVQAGGSLRLSCAASGRIFLRYAMGWYRQAPGKEREFVADITYSGGSTYYADSVKGRFTISRDNAKNTVYLQMNSLKPEDTAVYYCAAGWVRPWATYKLDYWGQGTQVTVTS”, the “polyreactivity (PSR sort gate)” value was “high polyreactivity”.

Consider “QVQLVESGGCLVQAGGSLRLSCAASGRIFSAYAMGWYRQAPGKESELVAAISRSGGLTYYADSVKGRFTISRDNAKNTVYLQMTSLKPEDTAVYYCAARYGSYDSRRWYYYWGQGTQVTVSS”, for which the “polyreactivity (PSR sort gate)” value is listed as “high polyreactivity”.

In the case of “QVQLVESGGCLVQAGGSLRLSCAASGRIFTYYGMGWYRQAPGKERELVAAITRSGGSTRYADSVKGRFTISRDNSKNTVYLQMNSLKPEDTAVYYCNAGGYWRYDYWGQGTQVTVSS”, the “polyreactivity (PSR sort gate)” value is “low polyreactivity”.

Take “QVQLVESGGCLVQAGGSLRLSCAASGRIFYDNVMGLYRQAPGKEREFVAAISRRGGSTDYADSVKGRFTISRDNAKNTVYLQMNSLKPEDTAVYYCADDAPGADFDYWGQGTQVTVSS”: the “polyreactivity (PSR sort gate)” value is “low polyreactivity”.

In the case of “QVQLVESGGCLVQAGGSLRLSCAASGRIFYIYAMGWYRQAPGKERELVAAITNGGSTNYADSVKGRFTISRDNAKNTVYLQMNSLKPEDTAVYYCAASVGTYAYGRTVYRYDYWGQGTQVTVSS”, the “polyreactivity (PSR sort gate)” value is “low polyreactivity”.

Take “QVQLVESGGCLVQAGGSLRLSCAASGRIFYNYAMGWYRQAPGKERELVAAISGSGGSTYYADSVKGRFTISRDNAKNTVYLQMNSLKPEDTAVYYCSTSGPQYYSRNFDYWGQGTQVTVSS”: the “polyreactivity (PSR sort gate)” value is listed as “low polyreactivity”.

With “QVQLVESGGCLVQAGGSLRLSCAASGRIIGANAMGWYRQAPGKERELVAAITKNGGRTYYADSVKGRFTISRDNAKNTVYLQMNSLKPEDTAVYYCARGLDVISYGYDYWVQGTQVTVSS”, the “polyreactivity (PSR sort gate)” value is “high polyreactivity”.

With “QVQLVESGGCLVQAGGSLRLSCAASGRSLTDYAMGWYRKAPGKERELVAAISRSGGSTYYADSVKGRFTISRDHAKNTVYLQMNSLKTEDTAVYYCAAGTPKRVGGGYWGQCTQVTVSS”, the “polyreactivity (PSR sort gate)” value is recorded as “high polyreactivity”.

In the case of “QVQLVESGGCLVQAGGSLRLSCAASGRTFINNAMGWYRQAPGKERELVAAISWDGGRTYYADSVKGRFTISRDNAKNTVYLQMNSLKPEDTAVYYCNAQPNYAYHGEDDYWGQGTQVTVSS”, the “polyreactivity (PSR sort gate)” value was “high polyreactivity”.

Regarding “QVQLVESGGCLVQAGGSLRLSCAASGRTFRVNAMGWYRQAPGKEWELVAAITWRGGSTYYADSVKGRFTISRDIAKYTVYLQMNSLKPEDTAVYYCAARYSSSSRRQKSDYWGQGTQVTVSS”, the “polyreactivity (PSR sort gate)” value is “high polyreactivity”.

As to “QVQLVESGGCLVQAGGSLRLSCAASGRTFRYYAMGWYRQAPGKERELVAAISSSGDRTYYADSVKGRFTISRDNAKNTVYLQMNSLKPEDTAVYYCAADRGARGDYWGQGTQVTVSS”, the “polyreactivity (PSR sort gate)” value is given as “high polyreactivity”.

As for “QVQLVESGGCLVQAGGSLRLSCAASGRTFSYYAMGWYRQAPGKVRELVAAISRRGGSTTYADSVKGRFTISRDNAKNTVYLQMNSLKPEDTAVYYCNTYPPAHREYASWGQGTQVTVSS”, the “polyreactivity (PSR sort gate)” value is reported as “high polyreactivity”.

Regarding “QVQLVESGGCLVQAGGSLRLSCAASGRTFVTYAMRWYRQAPGKERELVAGISRRGGRTYYADSVKGRFTISRDNAKNTVYLQMNSLKPEDTAVYYCAALTYYGSDYWGQGTQVTVSS”, the “polyreactivity (PSR sort gate)” value is given as “high polyreactivity”.

For the sequence “QVQLVESGGCLVQAGGSLRLSCAASGRTFYAYAMGWYRQAPGKERELVAAISWRGGDTYYADSVKGRFTISRDNAKNTVYLQMNSLKPEETGVYYCAKYLSRQSGDGEYDYWGQGTQVTVSS”, the “polyreactivity (PSR sort gate)” value is recorded as “low polyreactivity”.

“QVQLVESGGCLVQAGGSLRLSCAASGRTLHYYAMGWYIPAPGKVRELVARINWSGGSTYYADSVKGRFTISRDNAKKTVYLQMNSLKPEDTAVYYCAARKNRAYGYWGQGTQVTVSS”: the “polyreactivity (PSR sort gate)” value is reported as “high polyreactivity”.

Take “QVQLVESGGCLVQAGGSLRLSCAASGSIFAEYAMGWSRQAPGKERELVASISSRGGRTFYADSVKGRFTISRDNAKNTVYLQMNSLKPEDTAVYYCNALRIYITKKTGYGYWGQGTQVTVSS”: the “polyreactivity (PSR sort gate)” value is recorded as “high polyreactivity”.

For the sequence “QVQLVESGGCLVQAGGSLRLSCAASGSIFGTYTMGWYRQAPGKERELVATISNSGGNTYADSVKGRFTISRDNAKNTVNLQMNSLKPEDTAVYYCAVVGGEFSSYGYWGQGTQVTVSS”, the “polyreactivity (PSR sort gate)” value is on record as “low polyreactivity”.

For “QVQLVESGGCLVQAGGSLRLSCAASGSIFGWYDMGWYRQARGYERELVAAMTSDGSTNYADSVKGRFTISRDNAKNTVYLQKNSLKPEDTAVYYCAQDGWYYYYPYDYWGQGTQVTVSS”, the “polyreactivity (PSR sort gate)” value is “low polyreactivity”.

Regarding “QVQLVESGGCLVQAGGSLRLSCAASGSIFHPYAMGWYRPAPGKERELVAAISKSGGNTYYADSVKGRFTISRDNAKNTVYLQMNSLKPEHTEVYYCAADYYRGRYSDRYDYWGQGTQVTVSS”, the “polyreactivity (PSR sort gate)” value is reported as “low polyreactivity”.

“QVQLVESGGCLVQAGGSLRLSCAASGSIFNSNAMGWYRPARGKERELVAVISWSDGSTRYADSVKGRFTISRDNAKNTVYLQMHSLKPEDTAVYYCNADLVYYYRQEVDYWGQGTQVTVTS”: the “polyreactivity (PSR sort gate)” value is listed as “low polyreactivity”.

For the sequence “QVQLVESGGCLVQAGGSLRLSCAASGSIFPVNAMGWYRQAPGKERELVAAITSSGGTTYYADSVKGRFTISRDNAKNTVYLQMNSLKPEDTAVYYCAADVDVSYWRMEYWGQGTQVTVSS”, the “polyreactivity (PSR sort gate)” value is recorded as “high polyreactivity”.

On to “QVQLVESGGCLVQAGGSLRLSCAASGSIFVWNVMGWYRKAPGKERELVAAISWRGGTTYYADSVKGRFTISRDNAKNTVYLQMNSLKPEDTAVYYCAKQKHWSVHGGYNYWGQGTQVTVSS”, for which the “polyreactivity (PSR sort gate)” value is recorded as “high polyreactivity”.

Turning to “QVQLVESGGCLVQAGGSLRLSCAASGSTFGYYAMGWYRQAPGKERELVAAITSNDGSTHYADSVKGRFTISRDNAKNTVYLQMNSLKPEDTEVYYCNARSFVAVISSFVYWGQGTQVTVSS”, the “polyreactivity (PSR sort gate)” value was “low polyreactivity”.

On to “QVQLVESGGCLVQAGGSLRLSCAASGSTIGVNAMGWYRQAPGKERELVAAISRGGGRTYYADSVKGRFTISRDNAKNTVYLQMNSLKPEDTAVYYCNTDFGARMGYCGQGTQVTVSS”, for which the “polyreactivity (PSR sort gate)” value was “high polyreactivity”.

In the case of “QVQLVESGGCLVQAGGSLRLSCAASGSTIPLYAMGWYIQAPGKERELVAAITSGGGNTYYADSVKGRYTISRDNAKNTVYLQKTSLKPDDTAVYYCAAVVGYKSYYSYEYDYWGQGTQVNVSS”, the “polyreactivity (PSR sort gate)” value is listed as “low polyreactivity”.

For “QVQLVESGGCLVQAGGSLRLSCAASGSTYKLNAMGWYRQAPGKEREMVAAISRGGRTNYADSVKGRFTISRDNAKNTVYFQMNSLNPEDTAVYYCAKDVAGLFHVGALYYYWGQGSQVTVSS”, the “polyreactivity (PSR sort gate)” value is “low polyreactivity”.

Take “QVQLVESGGCLVQAGGSLRLSCAASGYIFSGYAMGWYRQAPGKERELVAAISSNGGSTYYADSVKGRFTISRDNAKNTVYLPMNSMKPEDTAVYYCKRGLAARVGRVDYWGQGTHVTVSS”: the “polyreactivity (PSR sort gate)” value is reported as “low polyreactivity”.

On to “QVQLVESGGCLVQAGGSLRLSCAASRSTFSYNAMGWYRHAPRKERELVASSSTSGGSTYYADSVKGRFSISRDNAKNTVYLQINSLTPEDTAVYYCNAPTSDIYSDFDYWGQGTQVTVSS”, for which the “polyreactivity (PSR sort gate)” value is reported as “low polyreactivity”.

On to “QVQLVESGGCLVQAGGSLRLSCAASVRTYETNAKGWYIQAPGKEREFVAAISSSGASTYYADSVKGSFTISRYNAKNTVYLQMNSLKTEDTAVYYCAARRREWGQGTQVTVSS”, for which the “polyreactivity (PSR sort gate)” value is “low polyreactivity”.

In the case of “QVQLVESGGCLVQAGGSLRLSCAPSGFIFPYYAMGWYRPAPGQERALVAAITSSGGSTYYADSVKGRFTISRDNAKNTVYLQMNSLKPEETAVYYCNKYRRYVDGYEMDYWGQGTQVTVSS”, the “polyreactivity (PSR sort gate)” value is listed as “high polyreactivity”.

Consider “QVQLVESGGCLVQAGGSLRLSCASSGRTFSWNAMGCYRQAPGKEREFVAAISNSGGSTYYADSVNGRFTISRDNAKNTVYLQMNSLKPEDTAVYYCAVYRYYGFSLWYDYWGQCTQVTVSS”, for which the “polyreactivity (PSR sort gate)” value was “low polyreactivity”.

For “QVQLVESGGCLVQAGGSLRLSCASSGSTFVRYTLGRYRQAPGKEREMVARISRTSSTNYADSVKGRFTISRDNAKNTVYLQMNSLKPEDTSVYYCNAREYYPTKSRFKYWGQGTQVTVSS”, the “polyreactivity (PSR sort gate)” value was “low polyreactivity”.

“QVQLVESGGCLVQAGGSLRLSCPPSGSIFIYYAMGWYRHAPGKERELVAAISWSCGDTYYADSVKGRFTISRDNAKNTVYLQMNSLKPEDTAVYYCNADFDPYYPYTAWDSVLTHDEYWGQGTQVTVSS”: the “polyreactivity (PSR sort gate)” value was “low polyreactivity”.

Consider “QVQLVESGGCLVQAGGSLRLSCSASGSIFNYNDMGWYRQAPGKERELVAAIDSSGTSTYYADSVKGRYTISRDNSKNNVYLQMTSLKPEDTAVYYCNADSSLGFGYWGQGTQVTVSS”, for which the “polyreactivity (PSR sort gate)” value is recorded as “low polyreactivity”.

As for “QVQLVESGGCLVQAGGSLRLSGAASGRIFGRNAMGWYRQAPGKERELVAAINSGVSTYYADSVKGRFTIARDNAKNTVYLQMNSLKPEDTAVYYSATDTDYYLLYLYYYWGQGTQVTVSS”, the “polyreactivity (PSR sort gate)” value is “low polyreactivity”.

The values above are taken from the nanobody polyreactivity screen of Harvey et al. (2022).
